Test results: patent US10925971B2, “Methods of treating PRLR positive breast cancer” (Regeneron Pharmaceuticals, Inc., priority 2016, dated 2021)

Experiments:
HEK293 (293) cells = assay: In vitro cell viability (cell kill) assay, CCK8; type: cell-based, human; conditions: 293; Table 11; 3 days
Text: (§1) PRLR-overexpressing cells, including HEK293, PC3, MCF7 and NCI-N87, were generated to assess the ability of anti-PRLR conjugated antibodies to reduce cell viability. For comparative purposes, PC3 and T47D cells with overexpressed ErbB2 were also generated, as well as an MCF7 cell line over-expressing both hPRLR and hErbB2. Briefly, Lipofectamine® 2000-mediated transfection methodology was utilized to generate HEK293 cells expressing human PRLR (HEK293/hPRLR) or human ErbB2 (HEK293/hErbB2). Lipofectamine LTX with Plus Reagent was used to generate PC3 cells expressing human PRLR (PC3/hPRLR) or human ErbB2 (PC3/hErbB2). Lentiviral-mediated transduction was utilized to generate MCF7 cells expressing human PRLR (MCF7/hPRLR), NCI-N87 cells expressing human PRLR (NCI-N87/hPRLR), T47D cells over-expressing human ErbB2 (T47D/hErbB2), and MCF7 cells expressing both human PRLR and human ErbB2 (MCF7/hPRLR/hErbB2). All lines were selected for at least two weeks in complete growth media plus appropriate selection reagents. Stably expressing populations were enriched for PRLR expression via FACS using the anti PRLR antibody Control I.
(§2) Next, the ability of anti-PRLR-DM1 antibody-drug conjugates (i.e., anti-PRLR antibodies conjugated to DM1 via a non-cleavable linker [SMCC]) to reduce cell viability was determined using in vitro cell based assays. Cells were seeded in PDL-coated 96 well plates at 1500 to 10000 cells per well in complete growth media and allowed to grow overnight. For cell viability curves, ADCs or free DM1 (as the methyl disulfide derivative DM1-SMe) were added to the cells at final concentrations ranging from 500 nM to 5 pM and incubated for 3 days. The 293, PC3 and T47D cells were incubated with CCK8 (Dojindo, Rockville, Md.) for the final 1-3 hours and the absorbance at 450 nm (OD450) was determined on a Flexstation3 (Molecular Devices, Sunnyvale, Calif.). MCF7 cells were treated with Hoechst 33342 nuclear stain while being fixed with 4% formaldehyde. Images were acquired on the ImageXpress micro XL (Molecular Devices, Sunnyvale, Calif.) and nuclear counts were determined via Columbus image analysis software (Perkin Elmer, Shelton, Conn.). Background OD450 values (PC3, 293, and T47D) or nuclear counts (MCF7) from digitonin (40 nM) treated cells was subtracted from all wells and viability was expressed as a percentage of the untreated controls. IC50 values were determined from a four-parameter logistic equation over a 10-point response curve (GraphPad Prism).

PC3 cells = assay: In vitro cell viability (cell kill) assay, CCK8; type: cell-based, human; conditions: Table 11, 3 days
Text: as §1, §2

MCF7/PRLR tumors = assay: MCF7/PRLR breast cancer xenograft, tumor size and tumor growth inhibition; type: in vivo, NCr nude mice; conditions: for Average Tumor Growth Inhibition (%) / Final Tumor size mm^3 (mean ± SEM): MCF7/PRLR tumors TRIAL #1, NCr Nude mice, Day 52
Text: (§3) Briefly, 20×10^6 MCF7/PRLR cells (ATCC HTB-22 transfected with full length hPRLR as previously described) were implanted subcutaneously into the left mammary fat pad of female NCr nude mice. In other studies, 10×10^6 PC3/PRLR (ATCC CRL-1435 transfected with full length hPRLR as previously described) were implanted subcutaneously into the left flank of male SCID mice. Additionally, 10×10^6 parental T47D (ATCC HTB-133) or 7.5×10^10 T47D #11 cells (ATCC HTB-133 serially passaged in vivo as described below) were subcutaneously implanted into the left flank of female CB17 SCID mice. All mice were obtained from Taconic (Hudson, N.Y.). Each bolus of cells was supplemented with a 90-day estrogen release pellet (1.7 mg/pellet; Innovative Research America, Sarasota Fla.). […] Control reagents included PBS vehicle, free methyl-disulfide DM1 (DM1-SMe) and isotype Control 1-DM1.
(§4) In multi-dose studies, mice were dosed once a week for a total of three weeks with tumor volumes and body weights being monitored twice weekly throughout the study. Test ADCs were dosed at 5 and/or 15 mg/kg in the multi-dose studies. In single-dose studies, mice received a single dose of test ADC, and tumor volumes and body weights were monitored twice weekly throughout the study. Test ADCs were dosed at 1, 2.5, 5, and 15 mg/kg in the single-dose studies. Average tumor size as well as tumor growth inhibition relative to the vehicle treated group were calculated for each group. Tumors were measured with calipers twice a week until the average size of the vehicle group reached 1000 mm^3. Tumor size was calculated using the formula (length×width^2)/2. Tumor growth inhibition was calculated according to the following formula: (1−((Tfinal−Tinitial)/(Cfinal−Cinitial)))*100, where T (treated group) and C (control group) represent the mean tumor mass on the day the vehicle group reached 1000 mm^3. […] Results are summarized in Tables 21-25 (multi-dose) and Table 26 (single dose). (NT=not tested in the particular experiment shown).

PC3/PRLR tumors = assay: PC3/PRLR xenograft, tumor size and tumor growth inhibition; type: in vivo, SCID mice
Text: as §3, §4

[1] = PC3/PRLR tumors TRIAL #1, SCID mice, multi-dose 5 mg/kg, Day 63

Molecule | IC50 (HEK293 (293) cells) | % Kill (PC3 cells) | IC50 (PC3 cells) | % Kill (HEK293 (293) cells) | other results
H1H6959N2-DM1 (conjugate) VH: EVQLVESGGGLVQPGRSLRLSCAASGFTFDDYAMHWVRQAPGKGLEWVSGISWHSGIIGYADSVKGRFTISRDNAKNSLYLQMNSLRTEDAALYYCAKIGSYFYFDSWGQGTLVTVSS VL: EIVLTQSPGTLSLSPGERATLSCRASQSVSSNYLAWYQQKPGQAPRLLIYGASSRATGIPDRFSGSGSGTDFTLTISRLEPEDFAVYYCQQFGSSGYTFGQGTNLEIK | 75 nM | 79% | 150 nM | – | –
H1H6975N-DM1 (conjugate) VH: EVHLVESGGGLVQPGGSLRLSCAASGFTFSSYEMNWVRQTPGKGLEWISHISSRSVIIYYADSVKGRFTISRDNAKNSLFLQMNSLRAEDTAVYFCAGITIFGIPEYWGQGTLVTVSS VL: EIVLTQSPATLSLSPGERATLSCRASQSVSSYFAWYQQKPGQAPRLLIYDASSRATGIPTRFSGSGSGTDFTLTISSLEPEDFAVYYCQQRSSWPITFGQGTRLEIK | – | 71% | – | – | Average Tumor Growth Inhibition (%) (MCF7/PRLR tumors; multi-dose 5 mg/kg): 118%; Final Tumor size mm^3 (mean ± SEM) (MCF7/PRLR tumors; multi-dose 5 mg/kg): 125 ± 46 mm^3; Average Tumor Growth Inhibition (%) (MCF7/PRLR tumors; multi-dose 15 mg/kg): 135%; Final Tumor size mm^3 (mean ± SEM) (MCF7/PRLR tumors; multi-dose 15 mg/kg): 0 ± 0 mm^3; MCF7/PRLR tumor growth (MCF7/PRLR tumors; first multi-dose trial, 5 and 15 mg/kg): potently inhibited MCF7/PRLR tumor growth; Average Tumor Growth Inhibition (%) (PC3/PRLR tumors; [1]): 31%; Final Tumor size mm^3 (mean ± SEM) (PC3/PRLR tumors; [1]): 973 ± 169 mm^3; Final Tumor size mm^3 (mean ± SEM) (PC3/PRLR tumors; PC3/PRLR tumors TRIAL #1, SCID mice, multi-dose 15 mg/kg, Day 63): 895 ± 63 mm^3; PC3/PRLR tumor growth (PC3/PRLR tumors; multi-dose, especially at 15 mg/kg): demonstrated inhibition of tumor growth
H1H6793P-DM1 (conjugate) VH: EVQLVESGGGLVQPGGSLRLSCAASGFSFSIYAMSWFRQAPGKGLEWVSAINGRGDGTHYADSVKGRFTISRDNSKTTLYLQMSSLRAEDTAVYYCAKPVMSTNGFDIWGQGTMVTVSS VL: DIQMTQSPSTLSASVGDRVTITCRASQSISSWLAWYQLKPGKAPKLLIYKASNLESGVPSRFSGSGSGTEFTLTISSLQPDDFATYYCQQYNIYWTFGQGTKVEIK | 100 nM | 72% | 200 nM | 84% | –
H1H6960N-DM1 (conjugate) VH: EVQLVESGGGLVKPGGSLRLSCAASGITFSSYSMNWVRQAPGKGLEWVSSISTRSSLIHYADSVKGRFTISRDNAKNSLYLQMNSLRDEDTAVYYCARWDAAAAFDYWGQGTLVIVSS VL: DIQLTQSPSFLSASVGDRVTITCWASQGISSYLAWYQQKPGKAPKLLIYVASTLQSGVPSRFSGSGSGTEFTLTISSLQPEDFATYFCQQLNSYPLTFGGGTKVEIK | 75 nM | 80% | 150 nM | – | –
H1H6762P-DM1 (conjugate) VH: QVQLVESGGGVVQPGRSLRLSCAASGFTFSHYGMVWVRQPPGKGLEWVALISFDGTTKYYADSVKGRFTISRDNSKNTLYLQMNSLRAEDTAVYFCVGAIAAAAFDLWGRGTLVTVSS VL: EIVMTQSPATLSVSPGERATLSCRASQSVSSDLAWYQQKPGQAPRLLIYSASARATGIPARFTGSGSGTDFTLTISSLQSEDFAVYYCQQYNNWPMYTFGQGTKLEIK | – | 78% | 250 nM | 89% | –
H1H6803P-DM1 (conjugate) VH: EVQLVESGGGVVRPGGSLRLSCAASGFKFDDYGMTWVRHVPGKGLEWVSGINWNGGRTGYTDSVKGRFTISRDNAKNSLYLQMNSLRAEDTALYHCAGARRDAFDIWGQGTMVTVSS VL: DIQMTQSPSSLSASIGDRVTITCRASQNIIKYLNWYQQNAGKAPKLLIYTASSLQSGVPSRFSGSGSGTDFTLTISSLQPEDFATYYCQQSSSSPYTFGQGTKLEIK | – | 72% | – | 7% | –
